A short description of data set [1]: WB of endogenous EP300, 786-O and Caki-1. The following applies: glycan lost; control: untreated.
A short description of data set [2]: CHX chase, WB, 786-O cells. The following applies: glycan lost; control: Flag-EP300-WT.
The nature of data set [3]: anti-Flag WB of cell fractions. To be noted: glycan lost; control: Flag-EP300-WT.
Data set [4] in a line: nuclear/cytoplasmic fractionation WB and IF. To be noted: glycan lost; control: Flag-EP300-WT.

For EP300: OSMI-1, the expression_or_secretion result in data set [1] is listed as “decreases”.

In the case of EP300: S900A, the degradation_or_half_life entry in data set [2] was “decreases”. Further, the expression_or_secretion result in data set [3] was “changes”. The localisation_or_trafficking entry in data set [4] is “no change”.

The values above are taken from paper PMC11343739.
